Assay results from the DeepSol protein solubility set.

Test: soluble on expression in E. coli; label from the status in PepcDB or PDB records

Sequence | soluble on expression in E. coli
VSIYLKPIINKLTPESRNTLDSAINYAISRSHHEVDCLHLLWKLLQEHKYIAEVLYEQSLFNPEWVLNAIESELIRINTVPQSSPVFSESMQTLLEKTWIHASTKWQIDHIDIPVFLSTMINFRDSIFPLNVSDALCCDMDVAEELLISFSDEAEHSASHRPTDRSSHEYLSKYTENLSLRAETGKLDPVTGREKEVRQLIDILLRRRQNNPILTGEPGVGKSSIVEGLALQIASGRVPDVLKNVRIHALDMGALLAGASVRGEFENRLKSLLTELNSLDGTAILFIDEAHSLIGAGGLPGQTDAANLLKPALARGELRIIAATTWGEYKKYFEKDGALARRFQIVKVAEPNQDVTAEMLRSLLPMMEKHHNVSIREEAITATVHLSDRYLHGRRQPDKSVSLLDTACSRVAVSQSTSPDAIQDVEASLVRYQGELALLTQERSDVLRQEMLANKIAQLEEELEQLKSAWRHQSELVAKIQSSDDISSKNMYRKELESAYKKDSPMVFECVDKNCVADVVSGWTGVPLGVCLDGEQQKASGLLRCLEQRVLGQRYAMSAIASQVLICRADLKDPVKPDGVFLLAGPSGTGKTETARALAEFVYGDENKLITINMTEFQEAHTVSTLKGAPPGYVGFGQGGTLTERVSHNPYSVILLDEIEKAHPDVLEFFFQIFDSGIIEDAEGKMVSFRDCLIIMTSNFASENITNIWNDGETNRDRIKEMLLPLFNEHFGAAFMGRTNLIPFTPLHSKTLRDIVLIKIDKICQRFEQASGQMYKIEYNDSLIDWITHHCQCDKSGARDIDSVLNSTVLPVLARYLTDSEDNRTPKKIRISVRKNNITLRSSQFATRN | not soluble
MAHHHHHHMSRVSVLAGQKPKPKESFKFLRRDEGRLSYSAATAESPSKNAANGADGANINRERRDSKALREAIAYDMRNAKSHDPLGEVVVAVPRKAPPPTRAVSAPPPNTNASSGTEKPAAGAPPQRRQPARAANPKKPEWVDPEIPPSPLLQAPTHTVVERPADNYFETSYSDSHSGGAAALSSGIGRSVSRGSDTNGADLGRYGGLTPRSAAMGAPRYASLKYEESSAAPLSGQDRNYFRRPLYTRDPALGSDAHSPAGSRVREEDELIASLEQEIKAAQKERNHYADARQQLDREKQRFESYRYGARQQMEDERADAGDRRSREQRDAQKDLRATEERFKNVSALLVAERETNRRLSQENDSLRTQLEDLTSTMREAHRIHKAEVARMRRDIDSLTRRNAELLAMAKEQQLQCLEGASASPSTRQSSSSPFSVSLDPSAQRASSASCEGGYDEDNDAAAVGERRASRAAPLAVMDFTPRASSREAAAREKRNRQMQNRMQAEEQAMEERKRHREQYIAGRKREEQEEKTRHRVAVDAAAAATACRRSEEDDLRKAATAAEKVVEERKMSGHPARTPRMQSGALSVKRRPSVSAVHAPVAPKRHHVPTREDLIGDMEEFPTEKFCDDDVVSQTALGDNSNKKEVLYRSGKREIHYANGTVKVVLPSGHTTLRFTNGDVKCTFPSGKSTYWYDAAQTMHTQMPDGVQAFEFRSTGQTEKHLPDGSKEILYPDGIYKMVRPDGSDETFYPDGEPMEE | soluble
MGSDKIHHHHHHMLANGDVPILQLQHIIKRFGNQVAVNDVSLNIHRGEIVALLGENGAGKSTLIKILAGLYSRDEGEIYFHQQKIQSAQSLTNKNKQPIAFIHQDLGLVEWMTIAENMAFVMGFPRRFGLIDWKKINQQAQEALDFVGIHLSAQTRVFDLSRTEKALLTIARAIAVNAEILVLDEPTASLPASDVEHLFKVLNRLRKQGVGMIYVTHRLDEVIRLSDRILVMRDGYSVAEGSTKDYDVKALVKAIVGEETREKQREPLPKNTPEVVRLNEVVVGDTGPVSFSLHQGEMIALAGLRGAGQEEIGRLLFGLRKLESGDISLNECAYHAESPCEAIYKGVALVAGDRIREGLVMSMTTMENLFINPILSGHFPLKNYASKKERSECWYQFQLFDIRPKNLFIEVSSLSGGNQQKIVLARWMQLNTPVLILEDPTAGVDVGARAEIYDLLNQALKKGVAIIVISNDFEEIAHLCNRALVFNRGDIVGELFNEQVTFANLLALASDASATIN | not soluble
QPALPEAMYQLLSGAHYRTSPLDLRRMMDAPGQAFRCARTGGAVAGALWLVAEGGLSPELSRAVWAGFRRPRGNLVAQSLAAHGGSPLAATLRGLRVSRIAVHPTRQREGLGRKMIADIAADAAGYDYLSVSFGYTAELWRFWQRCG | not soluble
MTSLQLSIVHRLPQNYRWSAGFAGSKVEPIPQNGPCGDNSLVALKLLSPDGDNAWSVMYKLSQALSDIEVPCSVLECEGEPCLFVNRQDEFAATCRLKNFGVAIAEPFSNYNPFLEHHHHHH | not soluble
MKIFAVVVTYNRLALLKKVIDLLKRQTRQLDSIVIVNNGSTDGTKEWLEQEKNITLINQSNSGGAGGFETGVKYAYENEADWIWMMDDDVFPNIDCLEKLLGWTSISQCIQPRRYYSDDVEVNFEQWLDPITYSKFGYWQEKSFNNGKKFCAINVGCFEGMFVSKSIVNKIGFPDKRFFIAEDDTIYGFAASFYTNVILVSDAIMVRARRSSDRSVSPMYTYYACRNFHLVYESLNLLLDKKNRFLYIKYIYQFVHQIYLSIFLYDNKMKHLISVFRGFYDCFRKKNGATYLEHHHHHH | not soluble
GGQFIAFLRNITERKRAEALHRMGQDILLALNENEDMKEAIQRVLGLLRSATGVDAVGIRLQDGDDFPYFYQEGFPPDFLQKEDSIVARNKDGGVCRDSCGNVCLECTCGMVISGSTDHANPLFTPGGSAWTNDSFPYLEVPADQDPRTTPRDECIHQGYASIALIPIRAKGRIVGLLQLNDRRKGRFTREGIEALEDIAKNIGEAMLRKQAEEKLVASERFLRMLTNQLPGMVGYWDRD | not soluble
MSKSIYEQYLQAKADNPGKYARDLATLMGISEAELTHSRVSHDAKRLKGDARALLAALEAVGEVKAITRNTYAVHEQMGRYENQHLNGHAGLILNPRNLDLRLFLNQWASAFTLTEETRHGVRHSIQFFDHQGDALHKVYVTEQTDMPAWEALLAQFITTENPELQLEPLSAPEVTEPTATDEAVDAEWRAMTDVHQFFQLLKRNNLTRQQAFRAVGNDLAYQVDNSSLTQLLNIAQQEQNEIMIFVGNRGCVQIFTGMIEKVTPHQDWINVFNQRFTLHLIETTIAESWITRKPTKDGFVTSLELFAADGTQIAQLYGQRTEGQPEQTQWRDQIARLNNKDIAA | soluble
MKIAFIGEAVSGFGGMETVISNVIHTFENSSPKINCEMFFFCRNDKMDKAWLKEIKYAQSFSNIKLSFLRRAKHVYNFSQWLKETSPDIVICIDVISCLYANKARKKSGKHFTIFSWPHFSLDHKKHAECITYADYHLAISSGIKEQIMARGISAQDISVVYNPVSIKTVIVPPPERDKPAVFLYVGRLKFEGQKRVKDLFDGLARTTGEWQLHIIGDGSDFEKCQAYSRELGIEQRVIWYGWQSAPWQVVQQKIKNVTALLLTSAFEGFPMTLLEAMSYGIPCISSDCMSGPRDMIKPGLNGELYTPGAIDDFVGHLNRVISGEVKYQHDIIPGTIERFYDVLYFKNFNNAIFSKLQK | not soluble
MKKAVVLLSGGMDSATTLAIARQSGFACYALSIDYGQRHVAELAAAARIGQSLQVSDHQFLKLDLAVLASSVLTDISATVPLHGTSTGIPVTYVPARNTIMLALALAWAEVLGSHDIFIGVTAVDYSGYPDCRRDYIDAFEKMANLATKAGREGMVLTVHAPLIDLPKREIIQCGMELGIDYGLTVSCYQADEAGYACGQCDACHIRRAGFEAADIPDPTCYRNKQIS | not soluble
MPALEFFKDKERGVLDPKVFERAREVAEGLARGKLKSSQFRNYFAELRALENRFERERRKEGEELAFARLVPQLELLRAKLFYNTRSQGPLRDAKEFVEFMEEALEAGKRSPKDFEAMMKYVEAVLAYFYALAK | soluble
MADPGSVGHVFRRAFSWLPAQFASQSDAPVGAPRQFRSTEHLSIEAIAAFVDGELRMNAHLRAAHHLSLCAQCAAEVDDQSRARAALRDSHPIRIPSTLLGLLSEIPRCPPEGPSKGSSGGSSQGPPDGAAAGFGDRFADGDGGNRGRQSRVRR | soluble
MGAMIVKEVYETAEKIKSMEIRGAGRIARAAAQALMIQAEKSKAKEPEELWNELKVASKILYNTRPTAVSLPNALRYVMHRVKAAYLGGADLETLRFTAINSAKEFIYNSEKAIERIGEIGAKRIEDGDIIMTHCHSKAAISVMKKAFEQGKNIKVIVTETRPKWQGKITAKELASYGIPVIYIVDSAARHYMKMTDKVVMGADSITANGAVINKIGTSLIALTAKEHRVWVMIAAETYKFHPATMLGQLVEIEMRDPTEVIPEEELRTWPKNIEVWNPAFDVTPPEYIDVIITERGIIPPYAAIDILKEEFGWALKYKEPWED | soluble
PEIKDHLIMVGFGFSGKTISKAAKAAGIPYIILETNPDIVKQEKTKGERIQYGDATFGAVQEHAGIRNARVLITGISDSVATRKIVEKAKELNPNIYVIAKVRNLQEMKHLHHLGADEIIPEEYETSVEIFVRLLEKYLV | not soluble
MEEELASYKLQLQQVEAALLGDPTNVELLKLKEDLGEIISLQEDLAETDKAESSERAVVAPQVIHKWTVGERVIAPHPDGKKVFARIDSLTPAGVAITFTSTGTKTIVDPADLQLPPENQRKNYAFDNTKSAAGPSTQHGKKEWQAEKERRRQKALKKQQKQKELDSIKDGEKKSWQKFNTKANAKGLKGLKKVSATGSSQDGSASSSGGGGEKRGTIVSSRSSQFIFKATRGAMDSLF | not soluble
MGGVTSKVNVDVVQEQVKKDPVVMYTKTSCTFCNRAKDLFSDVRVAYKEVNLDTLKASQPDDYLGIVNGLVYTTRQTSVPQIFVCGRFIGGYTELDALRNSGHLFEAIAQCTGENSPKE | not soluble
MAKYHDIASPAYILEEDLLRRNLSLIASVADRTGVEIILAFKAYALWRTFPIIREYVPHSTASSVWEARLAFEEMGAPAHTFSPAYTPEEFPEILRYSSHVTFNSLSQYYLLSPMVKNVGVSLGLRINPEYSAVETALYNPCAPGSRFGVSASELGDTLPEGIEGLHFHTLCESTGYELEKTLKIIEDRFASVLEQA | not soluble
MSLGNGVGTCDLPPQFAYFFQFSHLSATRNLLCLDLDETLVCSKQRTPQTRETEDFYVVVEQRGKRYEFSVIKRPGLDVFLVSMAELYDLAIFTYAIKEYGDKIVNIIDPNRLIKYRMYRQHCVKYLVDKRHVIVKDLSRVGKPHSSILLIDNSASTGIWQRNNFLLVPSFYGDERDKVLYELKELLEGISKCKDFYTEIQSLRSVEGHHHHHH | soluble
MSLNKELIQHAAYAAIERILNEYFREENLYQVPPQNHQWSIQLSELETLTGEFRYWSAMGHHMYHPEVWLIDGKSKKITTYKEAIARILQHMAQSADNQTAVQQHMAQIMSDIDNSIHRTARYLQSNTIDYVEDRYIVSEQSLYLGHPFHPTPKSASGFSEADLEKYAPECHTSFQLHYLAVHQDVLLTRYVEGKEDQVEKVLYQLADIDISEIPKDFILLPTHPYQINVLRQHPQYMQYSEQGLIKDLGVSGDSVYPTSSVRTVFSKALNIYLKLPIHVKITNFIRTNDLEQIERTIDAAQVIASVKDEVETPHFKLMFEEGYRALLPNPLGQTVEPEMDLLTNSAMIVREGIPNYHADKDIHVLASLFETMPDSPMSKLSQVIEQSGLAPEAWLECYLNRTLLPILKLFSNTGISLEAHVQNTLIELKDGIPDVCFVRDLEGICLSRTIATEKQLVPNVVAASSPVVYAHDEAWHRLKYYVVVNHLGHLVSTIGKATRNEVVLWQLVAHRLMTWKKEYANNAVFVDCVEDLYQTPTIAAKANLMSKLNDCGANPIYTHIPNPICHNKEVSYCESEGHHHHHH | soluble
